# Results taken from patent publication US20050008653.
# pKd: −log10 of the molar value.
# Legend:
# [1] = molecular target: p53 core domain I195T I195T (UniProt P04637); test: FP
# [2] = molecular target: p53 core domain wild-type (UniProt P04637); test: FP; settings: wild-type value quoted for comparison; CDB3 did not affect wild-type DNA binding
substance,measurement,setting,value
Gadd45 30-mer DNA,pKd,[1]; after 1 h at 10 C with 100 uM CDB3 peptide,6.00
same,pKd,"[1]; no peptide, 10 C incubation, 1:1 binding fit",5.22
same,pKd,[2],6.10
